Test results: the supplement of paper PMC10567573

B1: SPDEF (parent)
chain: FQELAGKELCAMSEEQFRQRSPLG
B2: CCND1 (parent)
chain: IRRAYPDANLLNDRVLRAMLKAEE

Variants of: B1
Assay: protein stability index of a GFP-peptide fusion (GPS, HEK-293T) (PSI 1-6); higher = more stable
Settings: c terminus: a fixed tail appended
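Note: lentivirally expressed fusions sorted by FACS into six bins by GFP to DsRed ratio, PSI derived from sequencing read proportions per bin multiplied by bin number.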

Protein stability index of substitutions, site by site:
F17: L 3.14; T 3.63; Q 3.34; K 3.25; S 3.14; A 3.37; I 3.22; D 3.85; P 3.28; V 3.1
A11: C 1.83; W 2.83; S 2.31; D 4.66; H 3.35; I 1.87; F 2.5; Q 3.55; N 2.91; V 1.94; E 3.49; G 2.94
G24: D 3.14; L 2.67; N 2.72; S 2.74; M 2.78; C 2.49; V 2.43; R 2.42
G6: Q 2.68; K 3.03; Y 1.9; L 2.44; E 4.18; A 2.4; N 3.4; T 3.32; D 3.62
L4: H 3.85; N 3.8; I 3.15; Y 2.61; P 3.99; V 3.85; S 4.01
L23: R 3.24; W 1.69; P 3.25; E 3.48; Q 3.58; D 2.8; K 3.21; A 3.02; C 2.63; N 3.46
M12: T 3.4; H 2.9; P 2.38; A 3.57; N 3.3; L 2.72; V 2.83; R 3.34; G 3.04; E 4.28; I 2.46
P22: D 2.62; K 2.77; G 2.61; Y 2.2; I 2.42; T 2.63; M 2.56; R 2.53; V 2.87; A 2.64; E 3.15; L 2.88; N 2.59
R20: C 2.4; Y 2.43; N 3.04; S 2.88; P 2.58; M 2.1; K 2.51; F 2.2; E 3.71
F1: K 4.58; E 5.36; A 4.29; R 4.99; W 2.93; M 3.98; Y 3.02; T 4.55
Q19: N 2.11; G 2.53; K 2.74; C 2.67; L 2.24; S 2.45; F 2.23; T 3.11
Q16: R 2.6; Y 2.16; A 3.12; K 2.28; N 2.74; P 2.47; S 2.56; I 2.49; L 2.2
L9: N 4.37; D 4.79; Q 4.25; H 3.9; A 3.41; S 3.23; I 3.19; Y 3.25; K 3.61; E 4.93; W 2.8; G 4.34; M 3.41; V 2.71
E15: L 2.32; Q 2.71; F 1.98; Y 2.04; C 2.19
R18: H 2.64; F 2.21; S 2.82; D 3.37; Q 2.81; E 3.31; W 2; L 2.76; A 2.93; N 2.96; G 2.9; I 2.73; T 2.83
E14: W 2.95; H 2.47; V 2.07; A 2.28; C 2.46; S 2.3
Q2: W 2.14; D 4.74; K 3.61; M 2.65; N 4.11; G 2.44; I 2.17
A5: L 1.82; Y 2.6; P 3.58; D 3.71; K 3.27; M 2.58; E 3.83
E3: R 3.33; W 1.72; V 2.44; G 2.11; Q 3.45; I 2.55; T 2.22; S 2.34; H 3.36
K7: I 1.81; Y 1.58; F 2.18; W 1.73; G 3; V 2.61; T 3.38; A 2.58; P 3.35
C10: Y 2.4; L 2.79; G 3.05; E 3.9
E8: G 1.73; L 2.5; D 2.79; R 1.78; Q 2.25; Y 1.89; N 2.27; A 2.37; I 1.53; H 1.77
S13: Q 2.62; W 2.08; L 1.71; G 2.57; R 2.73; E 2.61; N 2.48; K 2.58; V 3.05
S21: T 2.59; G 2.52; Q 2.98; K 2.44; E 2.58; W 2.4; R 2.95; I 2.43; D 3.26

Variants of: B2
Assay: as above
Settings: c terminus: a fixed tail appended

Protein stability index of substitutions, site by site:
A22: N 2.86; M 2.41; T 2.8; S 2.37; L 1.78; K 3.27; P 3.69; V 2.21; E 3.08; H 2.8; I 2.1; D 2.73; R 2.3; Y 2.43; Q 2.64; F 1.92; W 2.74
R17: T 3.47; W 1.74; Y 3.4; V 1.72; S 2.72
L20: W 2.32; I 3.55; G 4.01; A 3.3; T 3.12; D 4.05; R 3.03; K 3.25; F 2.63; Q 2.58; M 2.87; N 3.45; P 4.68; E 4.09; S 3.69; H 2.55; Y 2.9
E24: F 1.55; R 2.02; C 2.08; W 1.52; T 2.33; I 3; P 2.39; S 3.28; L 1.8; V 1.23; Y 1.35; M 1.87; H 2.04; D 2.67; K 2.05; A 3.57; N 2.7
K21: P 3.85; F 1.47; C 3.33; V 2.93; M 1.76; N 3.04; W 1.83; Q 1.89; L 3.01; R 2.79; E 2.73; G 2.52; A 2.35; I 2.38; T 3.33; H 2.56; S 2.72
M19: V 3.61; E 3; N 4.92; W 3.96; F 3.26; C 3.48; Q 3.52; H 3.54; T 3.38; P 3.79; D 4.26; R 3.15; A 3; K 3.92
A18: G 3.77; M 1.8; W 2.3; N 3.06; I 2.36; C 2.33; T 3.58; H 3.17; Q 3.94; R 3.23; L 1.31; S 3.66; K 3.02; P 2.29
E23: A 1.87; R 2.37; W 1.84; M 2.3; F 1.62; N 2.18; S 2.3; T 2.61; C 1.92; H 1.62; V 1.8; K 2.75; I 1.21; D 2.42; L 3.39; Y 2.45; Q 3.18
